Source: patent US20030027228A1 (MYRIAD GENETICS, published 2003)
* marks the point of attachment. Biotin = O=C1N[C@H]2[C@H](CS[C@H]2CCCCC(=O)*)N1

T1: SH3 binding peptide biotin-SGSGILAPPVPPRNTR-COOH (SMILES …)
T1 peptide: Biotin-SGSGILAPPVPPRNTR-OH

T2: AF6 PDZ binding peptide biotin-SGDDGDDPFLQYEFYV-COOH (SMILES …)
T2 peptide: Biotin-SGDDGDDPFLQYEFYV-OH

T3: MMAC1.388-403 biotin-ENEPFDEDQHTQITKV-COOH (SMILES …)
T3 construct: also called the 16 C-terminal amino acids of MMAC1
T3 peptide: Biotin-ENEPFDEDQHTQITKV-OH


Experiments:
Assay in all cases: peptide binding ELISA: GST-PDZ on plate, biotin-peptide/streptavidin-alkaline phosphatase complex, colorimetric
[1] = molecular target: T1, SH3 binding peptide …
Text: (§1) cDNAs encoding each of the MMSC1 PDZ domains (amino acid residues identified in Table 1), and any desired control proteins, were generated by PCR and subcloned as glutathione S-transferase (GST) fusions in pGEX vectors (Pharmacia). After sequencing to confirm expression construct integrity, the resulting clones were expressed in E. coli and the desired fusion proteins isolated with glutathione-agarose and recovered with glutathione elution. These fusion proteins or control proteins were then adsorbed to different wells of a 96-well ELISA plate and remaining sites blocked with BSA. Synthetic commercially synthesized peptides encoding the desired PDZ-binding domain (i.e., the 16 C-terminal amino acids of MMAC1, or the C-terminal peptide sequences of interacting proteins identified by the approach of Example 2, or the C-terminal peptide sequences identified by the approach of Example 3), or a control peptide, and biotinylated at the amino-terminus, were pre-bound to streptavidin-alkaline phosphatase in a 4:1 molar ratio. The biotinylated peptide streptavidin-alkaline phosphatase complexes were then blocked with free biotin. These pre-bound peptide streptavidin-alkaline phosphatase complexes were then incubated with the immobilized PDZ domains in wash buffer containing PBS, BSA and triton-X100. Unbound material was removed with repeated washes. Bound peptide/streptavidin-alkaline phosphatase complex was then quantitated by a colorimetric phosphatase assay read on a 96-well plate reader.

[2] = molecular target: T2, AF6 PDZ binding peptide …
Text: as §1

[3] = molecular target: T3, MMAC1.388-403 …
Text: as §1

A405 [1] [A405] | A405 [2] [A405] | A405 [3] [A405] | Binder
0.02 | 2.41 | 0.1 | GST fusion of MMSC1 PDZ domain 9 (amino acids 1532-1613) (other, Expressed in E. coli, purified on glutathione-agarose, adsorbed to the ELISA plate; GST is placed N-terminal as in pGEX vectors; also called MMSc1 PDZ 9; PDZ domain number 9; not shown: glutathione S-transferase (GST) encoded by pGEX vectors (Pharmacia)) FPVDLQKKAGRGLGLSIVGKRNGSGVFISDIVKGGAADLDGRLIQGDQILSVNGEDMRNASQETVATILKCAQGLVQLEIGR
0 | 1.46 | 0.23 | GST fusion of MMSC1 PDZ domain 6 (amino acids 1067-1158) (other, Expressed in E. coli, purified on glutathione-agarose, adsorbed to the ELISA plate; GST is placed N-terminal as in pGEX vectors; also called MMSc1 PDZ 6; PDZ domain number 6; not shown: glutathione S-transferase (GST) encoded by pGEX vectors (Pharmacia)) RIVEIFREPNVSLGISIVGGQTVIKRLKNGEELKGIFIKQVLEDSPAGKTNALKTGDKILEVSGVDLQNASHSEAVEAIKNAGNPVVFIVQS
0.01 | 2.24 | 0.01 | GST fusion of MMSC1 PDZ domain 3 (amino acids 364-451) (other, Expressed in E. coli, purified on glutathione-agarose, adsorbed to the ELISA plate; GST is placed N-terminal as in pGEX vectors; also called MMSc1 PDZ 3; PDZ domain number 3; not shown: glutathione S-transferase (GST) encoded by pGEX vectors (Pharmacia)) YNVELVRKDGQSLGIRIVGYVGTSHTGEASGIYVKSVIPGSAAYHNGHIQVNDKIVAVDGVNIQGFANHDVVEVLRNAGQVVHLTLVR

The next lines start with the binder.

Binder | A405 [1] [A405] | A405 [2] [A405] | A405 [3] [A405]
GST fusion of MMSC1 PDZ domain 7 (amino acids 1238-1320) (other, Expressed in E. coli, purified on glutathione-agarose, adsorbed to the ELISA plate; GST is placed N-terminal as in pGEX vectors; also called MMSc1 PDZ 7; PDZ domain number 7; not shown: glutathione S-transferase (GST) encoded by pGEX vectors (Pharmacia)) HIIELEKDKNGLGLSLAGNKDRSRMSIFVVGINPEGPAAADGRMHIGDELLEINNQILYGRSHQNASAIIKTAPSKVKLVFIR | 0.01 | 1.05 | 1.25
GST fusion of MMSC1 PDZ domain 5 (amino acids 685-771) (other, Expressed in E. coli, purified on glutathione-agarose, adsorbed to the ELISA plate; GST is placed N-terminal as in pGEX vectors; also called MMSc1 PDZ 5; PDZ domain number 5; not shown: glutathione S-transferase (GST) encoded by pGEX vectors (Pharmacia)) KIVELVKDCKGLGFSILDYQDPLDPTRSVIVIRSLVADGVAERSGGLLPGDRLVSVNEYCLDNTSLAEAVEILKAVPPGLVHLGICK | 0 | 0.02 | 0
GST fusion of MMSC1 PDZ domain 8 (amino acids 1436-1518) (other, Expressed in E. coli, purified on glutathione-agarose, adsorbed to the ELISA plate; GST is placed N-terminal as in pGEX vectors; also called MMSc1 PDZ 8; PDZ domain number 8; not shown: glutathione S-transferase (GST) encoded by pGEX vectors (Pharmacia)) MIIEISKGRSGLGLSIVGGKDTPLNAIVIHEVYEEGAAARDGRLWAGDQILEVNGVDLRNSSHEEAITALRQTPQKVRLVVYR | 0 | 0.29 | 0.3
